Results published in US9632088B2, “Methods and compositions for gamma-secretase assay” (MEMORIAL SLOAN-KETTERING CANCER CENTER, priority 2010, dated 2017).
One block for each molecule: values may come before it.

What was measured:
E280A PS1 γ-secretase = target: T1, E280A PS1 γ-secretase (Homo sapiens, UniProt P49768, E280A); test: In vitro N1-Sb1 γ-secretase assay, membrane of N2a cells expressing E280A PS1; assay type: biochemical, murine; settings: E280A PS1, N2a membrane
T1 construct: total membrane
Method: (§1) HeLa membrane fraction was isolated from HeLa-S3 cells (National Cell Culture Center). The cell pellet was resuspended in Buffer A (50 mM MES, 150 mM KCl, 5 mM CaCl2, 5 mM MgCl2) and lysed by passage through a French Press. N2a cells (murine neuroblastoma cells) over-expressing wild-type PS1, or mutants M146L or E280A, were obtained from Dr. Sangram Sisodia (University of Chicago, Chicago, Ill.). These cells were maintained in 50% Dulbecco's modified Eagle's medium high glucose, 50% Opti-Mem Reduced Serum Media, and 10% fetal calf serum. Cultured cells were pelleted by centrifugation and resuspended in hypotonic buffer (40 mM Tris, pH 7.4, 10 mM NaCl, 1 mM EDTA, and 0.5 mM DTT) for 20 minutes before being lysed with a dounce homogenizer. Nuclear debris from the HeLa and N2a cells were pelleted at 3000 rpm for 30 minutes. The resulting supernatants were ultracentrifuged at 100,000×g for 1 hour. The pellet that contained total cell membrane was resuspended in Buffer A. Mouse brains overexpressing knock-in wild type or M146V PS1 (gift from Dr. Hui Zheng, Amylin Pharmaceuticals, San Diego, Calif.) were homogenized with dounce homogenizer. The cell lysate was centrifuged at 3000 rpm for 30 minutes. The supernatants were ultracentrifuged at 100,000×g for 1 hour. Protein concentration was determined with the DC Protein Assay Kit according to the manufacturer's instructions (Bio-Rad, Hercules, Calif.).
(§2) An in vitro γ-secretase assay using a novel recombinant APP-derived substrate (termed “Sb4”) is disclosed in co-pending application U.S. Ser. No. 12/776,141. In the present assay based on a Notch-derived substrate, N1-Sb1 was incubated with the cell membrane fraction, prepared as described above, in the presence of 0.25% CHAPSO and 1×PIPES buffer (50 mM PIPES, pH 7.0, 150 mM KCl, 5 mM CaCl2, 5 mM MgCl2. The reaction was incubated at 37° C. for 2 hours. The Perkin Elmer AlphaScreen™ detection system was employed to assay for Notch cleavage. AlphaScreen (PerkinElmer Life and Analytical Sciences, Shelton, Conn.) is a bead based non-radioactive Amplified Luminescent Proximity Homogeneous Assay (ALPHA). When a biological interaction brings the beads together, a cascade of chemical reactions acts to produce a greatly amplified signal. Specifically, upon laser excitation, a photosensitizer in the “Donor” bead converts ambient (triplet) oxygen to the more reactive singlet state. The singlet state oxygen molecules diffuse into the solvent, and may react with a thioxene derivative in the Acceptor bead if nearby, generating chemiluminescence at 370 nm that further activates fluorophores contained in the same bead. The fluorophores subsequently emit light at 520-620 nm. In the absence of a specific biological interaction, the singlet state oxygen molecules produced by the donor bead go undetected without the close proximity of the acceptor bead. As a result no fluorescence signal at 520-620 nm is produced.
(§3) In the present system, antibody SM320, Protein A-conjugated acceptor beads, and Streptavidin-conjugated donor beads (PerkinElmer) were added to the reaction at a final concentration of 0.2 μg/ml, 2.5 μg/ml and 5 μg/ml, respectively (diagrammed in FIG. 5A). The reaction was incubated in the dark at room-temperature for 4 hours. The ALPHA signal was detected using the Envision plate reader (Perkin Elmer). The reactions were excited at 680 nm and signal was detected at 615 nm.
(§4) The effects of PS1 FAD mutations on Notch cleavage were determined using the new γ-secretase assay described in Example 2. The activities of two PS1 FAD mutations—PS1 M146L and E280A were compared against wild-type PS1 (WT), which has been previously studied (25). Total membrane was isolated from N2a cells that stably express WT, M146L, or E280A mutants. N1-Sb1 was incubated with these membranes and the resulting cN1-Sb1 was detected with SM320. […] The M146L and E280A mutants had 40% and 14% activity remaining, respectively, compared to the activity of the wild type (FIG. 7A). […]

[1] = test system: M146V PS1 γ-secretase (knock-in mouse brain); test: In vitro N1-Sb1 γ-secretase assay, knock-in M146V PS1 mouse brain membrane; assay type: biochemical
Method: as §1
(§5) An in vitro γ-secretase assay using a novel recombinant APP-derived substrate (termed “Sb4”) is disclosed in co-pending application U.S. Ser. No. 12/776,141. […] As a result no fluorescence signal at 520-620 nm is produced.
as §3, with “The reaction was incubated in the dark at room-temperature for 4 hours.” left out
(§6) Mouse brain specimens were obtained that either expressed knock-in wild type PS1 or the M146V PS1 mutation (25, 26). […] The cN1-Sb1 cleavage product was detected with the new in-vitro γ-secretase assay of Example 2. […]

[2] = target: T2, WT PS1 γ-secretase (knock-in mouse brain) (Mus musculus, UniProt P49769); test: In vitro N1-Sb1 γ-secretase assay, knock-in wild type PS1 mouse brain membrane; assay type: biochemical
T2 construct: Total membrane from these mouse brains was isolated; tissue gift from Dr. Hui Zheng; host or cells: mouse brain (PS1 knock-in), total membrane
Method: as §1, with “The pellet that contained total cell membrane was resuspended in Buffer A. Mouse brains overexpressing knock-in wild type or M146V PS1 (gift from Dr. Hui Zheng, Amylin Pharmaceuticals, San Diego, Calif.) were homogenized with dounce homogenizer. The cell lysate was centrifuged at 3000 rpm for 30 minutes. The supernatants were ultracentrifuged at 100,000×g for 1 hour.” left out
as §5
as §3, with “The reaction was incubated in the dark at room-temperature for 4 hours.” left out
as §6

[3] = target: T3, wild-type PS1 γ-secretase (Homo sapiens, UniProt P49768); test: In vitro N1-Sb1 γ-secretase assay, membrane of N2a cells expressing wild-type PS1; assay type: biochemical, murine; settings: for reactivity (rate of γ-secretase cleavage) compared with WT substrate: WT PS1, N2a membrane
T3 construct: total membrane
Method: as §1, §2, §3, §4

[4] = target: T4, γ-secretase (HeLa membrane) (Homo sapiens, UniProt P49768); test: In vitro N1-Sb1 γ-secretase assay (ALPHA detection with SM320), HeLa membrane; assay type: biochemical
T4 construct: host or cells: HeLa-S3 cells, total membrane fraction
Method: as §1
An in vitro γ-secretase assay using a novel recombinant APP-derived substrate (termed “Sb4”) is disclosed in co-pending application U.S. Ser. No. 12/776,141. In the present assay based on a Notch-derived substrate, N1-Sb1 was incubated with the cell membrane fraction, prepared as described above, in the presence of 0.25% CHAPSO and 1×PIPES buffer (50 mM PIPES, pH 7.0, 150 mM KCl, 5 mM CaCl2, 5 mM MgCl2. The reaction was incubated at 37° C. for 2 hours. The Perkin Elmer AlphaScreen™ detection system was employed to assay for Notch cleavage. AlphaScreen (PerkinElmer Life and Analytical Sciences, Shelton, Conn.) is a bead based non-radioactive Amplified Luminescent Proximity Homogeneous Assay (ALPHA). When a biological interaction brings the beads together, a cascade of chemical reactions acts to produce a greatly amplified signal. Specifically, upon laser excitation, a photosensitizer in the “Donor” bead converts ambient (triplet) oxygen to the more reactive singlet state. […] As a result no fluorescence signal at 520-620 nm is produced.
as §3, with “The reaction was incubated in the dark at room-temperature for 4 hours.” left out
HeLa membrane was incubated with N1-Sb1 substrate in the presence of 0.25% CHAPSO. The γ-secretase cleavage product (cN1-Sb1) was detected by the PerkinElmer proximity assay (ALPHA) using the SM320 antibody, Protein A-conjugated acceptor-beads (which bind SM320) and streptavidin-conjugated donor-beads (which bind biotin) (FIG. 5A). cN1-Sb1 levels in DMSO-treated assay was 10-fold higher than in the presence of the inhibitor L-685,458 (L458; structure shown below)-treated assay. […]

M146L PS1 γ-secretase = target: T5, M146L PS1 γ-secretase (Homo sapiens, UniProt P49768, M146L); test: In vitro N1-Sb1 γ-secretase assay, membrane of N2a cells expressing M146L PS1; assay type: biochemical, murine; settings: M146L PS1, N2a membrane
T5 construct: total membrane
Method: as §1, §2, §3, §4

[5] = read-out: Km for N1-Sb1 cleavage

B1: N1-Sb1: biotinylated recombinant substrate: human Notch1 fragment (residues 1733-1812) with AviTag (protein)
chain: PAQLHFMYVAAAAFVLLFFVGCGVLLSRKRRRQHGQLWFPEGFKVSEASKKKRREPLGEDSVGLKPLKNASDGALMDDNQN
modifications: biotinylated; Notch substrate N1Sb1 (NTM2)
notes: biotinylated recombinant substrate: human Notch1 fragment (residues 1733-1812) with AviTag
- N1-Sb1 cleavage activity remaining compared to wild type PS1 (E280A PS1 γ-secretase): 14%
- Vmax for N1-Sb1 cleavage (E280A PS1 γ-secretase): 49 U/μg/min
- Km (E280A PS1 γ-secretase; [5]): 0.05 µM
- Notch (N1-Sb1) cleavage activity compared to wild-type PS1 ([1]; M146V PS1 mouse brain membrane): less activity
- Vmax for N1-Sb1 cleavage ([1]; M146V PS1 mouse brain membrane): 40 U/μg/min
- Km ([1]; M146V PS1 mouse brain membrane, read-out: Km for N1-Sb1 cleavage): 0.048 µM
- Vmax for N1-Sb1 cleavage ([2]; WT PS1 mouse brain membrane): 52 U/μg/min
- Km ([2]; WT PS1 mouse brain membrane, read-out: Km for N1-Sb1 cleavage): 0.06 µM
- Vmax for N1-Sb1 cleavage ([3]; PS1 wild-type, N2a membrane): 293 U/μg/min
- Km ([3]; PS1 wild-type, N2a membrane, read-out: Km for N1-Sb1 cleavage): 0.07 µM
- Vmax of N1-Sb1 cleavage ([4]; arbitrary units): 38 Unit/μg/min
- Km ([4]; read-out: apparent Km of N1-Sb1 cleavage by γ-secretase): 0.15 ± 0.03 µM
- N1-Sb1 cleavage activity remaining compared to wild type PS1 (M146L PS1 γ-secretase): 40%
- Vmax for N1-Sb1 cleavage (M146L PS1 γ-secretase): 163 U/μg/min
- Km (M146L PS1 γ-secretase; [5]): 0.049 µM

B2: C1752A: N1-Sb1 substrate with P2 residue Cys 1752 substituted with Ala (protein, UniProt P46531 1733-1812, looked up, variant C1752A)
chain: QLHFMYVAAAAFVLLFFVGAGVLLSRKRRRQHGQLWFPEGFKVSEASKKKRREPLGEDSVGLKPLKNASDGALMDDNQNE
modifications: biotinylated AviTag
notes: N1-Sb1 substrate with P2 residue Cys 1752 substituted with Ala
- reactivity (rate of γ-secretase cleavage) compared with WT substrate (E280A PS1 γ-secretase): 20-30%
- reactivity (rate of γ-secretase cleavage) compared with WT substrate [3]: 20-30%
- reactivity (rate of γ-secretase cleavage) compared with WT substrate (M146L PS1 γ-secretase): 20-30%

Other lines, results leading:

- reactivity (rate of γ-secretase cleavage) compared with WT substrate (E280A PS1 γ-secretase): no effect
- reactivity (rate of γ-secretase cleavage) compared with WT substrate [3]: no effect
- reactivity (rate of γ-secretase cleavage) compared with WT substrate (M146L PS1 γ-secretase): 141.3±17.9%
B3: C1752V: N1-Sb1 substrate with P2 residue Cys 1752 substituted with Val (protein, UniProt P46531 1733-1812, looked up, variant C1752V)
chain: QLHFMYVAAAAFVLLFFVGVGVLLSRKRRRQHGQLWFPEGFKVSEASKKKRREPLGEDSVGLKPLKNASDGALMDDNQNE
modifications: biotinylated AviTag
notes: N1-Sb1 substrate with P2 residue Cys 1752 substituted with Val

- reactivity (rate of γ-secretase cleavage) compared with WT substrate (E280A PS1 γ-secretase): 185.5±7.4%
- reactivity (rate of γ-secretase cleavage) compared with WT substrate ([1]; M146V knock-in PS1 mouse brain): 127.4±3.7%
- reactivity (rate of γ-secretase cleavage) compared with WT substrate ([2]; WT PS1 knock-in mouse brain): no effect
- reactivity (rate of γ-secretase cleavage) compared with WT substrate [3]: no effect
- reactivity (rate of γ-secretase cleavage) compared with WT substrate (M146L PS1 γ-secretase): 166.4±6.1%
B4: C1752M: N1-Sb1 substrate with P2 residue Cys 1752 substituted with Met (protein, UniProt P46531 1733-1812, looked up, variant C1752M)
chain: QLHFMYVAAAAFVLLFFVGMGVLLSRKRRRQHGQLWFPEGFKVSEASKKKRREPLGEDSVGLKPLKNASDGALMDDNQNE
modifications: biotinylated AviTag
notes: N1-Sb1 substrate with P2 residue Cys 1752 substituted with Met
